In the supplement of paper PMC10126150:
± gives the standard deviation of the averaged measurements.

System: ATP
Assay: switch fluorescence ratio, 500 uM ATP over buffer (Cy3 cluster intensity, sum of 5 cycles each) (fold (ratio)); higher = stronger signal-on switching upon ATP binding; sequences stand for … in TCGTCGGCAGCGTCAGATGTGTATAAGAGACAGTTTTTTTTTTTTTTTTTTTTTTTTT…TC
Settings: aptamer strand: ATP DNA aptamer (quencher-CACCTGGGGGAGTATTGCGGAGGAAGG + anchor), 100 nM annealed; ATP concentration: 500 uM
How it was run: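 Cy3-labelled switching-strand clusters on a modified Illumina MiSeq flow-cell were annealed to 100 nM quencher-labelled ATP aptamer, imaged in selection buffer, then imaged after 15 min with 500 uM ATP at 22 °C. Five buffer/ATP cycles ran, with NaOH stripping and re-annealing between them. The fluorescence ratio is summed target-cycle over summed buffer-cycle Cy3 intensity per cluster, averaged per switch-domain sequence. Clusters outside 100-1000 RFU were excluded.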
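Note: ATP exposure 15 min at 22 °C before imaging.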

Sequence	switch fluorescence ratio
TTTGTGTGGA	1.03 ± 0.0059
TTTGTGTGGG	1.03 ± 0.03
TTTGTTAAG	1.02 ± 0.018
TTTGTTAGAT	0.993 ± 0.022
TTTGTTAGGT	1 ± 0.031
TTTGTTATAT	0.9839 ± 0.0039
TTTGTTCGGA	0.9795 ± 0.0059
TTTGTTGAAA	1.02 ± 0.018
TTTGTTGAGC	1.44 ± 0.66
TTTGTTGAGT	1 ± 0.026
TTTGTTGATA	0.983 ± 0.032
TTTGTTGGTG	1 ± 0.029
TTTGTTTAAA	0.974 ± 0.027
TTTGTTTAAG	0.973 ± 0.012
TTTGTTTCAC	1.04 ± 0.043
TTTGTTTGCA	1.01 ± 0.054
TTTGTTTGTA	1.01 ± 0.017
TTTGTTTTAG	0.983 ± 0.031
TTTGTTTTAT	1 ± 0.034
TTTGTTTTTT	0.994 ± 0.03
TTTTAAAACT	1.05 ± 0.039
TTTTAAACAG	1.028 ± 0.0066
TTTTAAAGGA	1 ± 0.023
TTTTAAAGGC	1.02 ± 0.031
TTTTAAATAG	1.01 ± 0.024
TTTTAACACT	1.035 ± 0.0085

Sequence	switch fluorescence ratio
TTTTAACCGG	0.974 ± 0.025
TTTTAACCTA	1.01 ± 0.019
TTTTAACGGA	1.03 ± 0.041
TTTTAAGAAA	3.11 ± 3
TTTTAAGAGT	0.992 ± 0.028
TTTTAAGATT	0.999 ± 0.047
TTTTAAGCAA	1.53 ± 0.17
TTTTAAGCCG	1.01 ± 0.069
TTTTAAGGAT	1 ± 0.024
TTTTAAGGGG	1.02 ± 0.046
TTTTAAGTCG	1.05 ± 0.014
TTTTAAGTGC	1 ± 0.027
TTTTAATCAG	0.9842 ± 0.0036
TTTTAATGGT	1.02 ± 0.03
TTTTAATTAT	1.05 ± 0.026
TTTTAATTG	0.961 ± 0.038
TTTTAATTTA	1.03 ± 0.043
TTTTACAAGT	0.982 ± 0.03
TTTTACAATT	0.9885 ± 0.0015
TTTTACAGCC	1.052 ± 0.0051
TTTTACCAG	1.02 ± 0.051
TTTTACCGAT	1.01 ± 0.034
TTTTACCGT	0.996 ± 0.012
TTTTACCTAT	1.04 ± 0.021
TTTTACGTCA	1.21 ± 0.073
TTTTACTGAT	1.02 ± 0.026

Sequence	switch fluorescence ratio
TTTTACTTGG	0.993 ± 0.015
TTTTACTTTT	1.01 ± 0.037
TTTTAGAGAG	0.997 ± 0.019
TTTTAGAGCG	1.02 ± 0.025
TTTTAGAGGA	0.9736 ± 0.0013
TTTTAGATTT	0.995 ± 0.026
TTTTAGGATG	0.996 ± 0.025
TTTTAGGCAT	1.01 ± 0.031
TTTTAGGGGA	1.01 ± 0.025
TTTTAGGGGT	1.02 ± 0.046
TTTTAGGTCA	0.9901 ± 0.0063
TTTTAGTCGT	0.991 ± 0.02
TTTTAGTGCC	1.01 ± 0.04
TTTTAGTGTT	1 ± 0.013
TTTTAGTTAG	1.03 ± 0.058
TTTTATATGG	0.986 ± 0.021
TTTTATCGAG	0.9893 ± 0.0093
TTTTATCGGT	0.979 ± 0.012
TTTTATCTTT	1 ± 0.015
TTTTATGAG	0.999 ± 0.031
TTTTATGCGG	0.974 ± 0.019
TTTTATGCGT	0.993 ± 0.033
TTTTATGGCT	0.982 ± 0.04
TTTTATGGGA	0.9849 ± 0.0032
TTTTATGTAA	0.996 ± 0.032
TTTTATGTCT	0.976 ± 0.03

Sequence	switch fluorescence ratio
TTTTATGTG	1.01 ± 0.021
TTTTATGTTA	0.977 ± 0.032
TTTTATTGCA	0.96835 ± 0.00073
TTTTATTGGT	0.9738 ± 0.0075
TTTTATTTGT	0.985 ± 0.0089
TTTTCAACTA	0.9949 ± 0.0024
TTTTCACTTT	1.01 ± 0.046
TTTTCAGAAG	0.997 ± 0.013
TTTTCAGATT	0.9601 ± 0.0086
TTTTCAGGAA	1.018 ± 0.0092
TTTTCAGGGT	1.01 ± 0.025
TTTTCAGTTG	1.002 ± 0.0029
TTTTCATGCC	1.09 ± 0.056
TTTTCATTCG	1 ± 0.033
TTTTCATTTC	1.01 ± 0.012
TTTTCCCCCT	1.081 ± 0.0069
TTTTCCCCTC	1.64 ± 1
TTTTCCCGGA	1.013 ± 0.0028
TTTTCCGGCC	1.72 ± 0.54
TTTTCCGTGG	1.01 ± 0.069
TTTTCCTAAA	1.06 ± 0.11
TTTTCCTAAC	0.999 ± 0.071
TTTTCCTAGA	1.004 ± 0.0057
TTTTCCTAGT	1.12 ± 0.073
TTTTCCTGAG	1.04 ± 0.035
TTTTCCTTGT	1.08 ± 0.13

Sequence	switch fluorescence ratio
TTTTCGACGA	1.27 ± 0.3
TTTTCGCTTT	1.09 ± 0.17
TTTTCGGGTA	1.02 ± 0.0091
TTTTCGTCAA	2.86 ± 2.4
TTTTCGTCTC	1.02 ± 0.019
TTTTCGTGAA	1.01 ± 0.021
TTTTCGTGGT	0.984 ± 0.017
TTTTCGTTTG	1 ± 0.074
TTTTCTAAAT	1.04 ± 0.076
TTTTCTAGGG	1.01 ± 0.017
TTTTCTATCT	1.06 ± 0.057
TTTTCTATGG	1 ± 0.082
TTTTCTGGAA	1.01 ± 0.029
TTTTCTGTAT	1.03 ± 0.052
TTTTGAACGA	1.01 ± 0.035
TTTTGAAGAT	1.009 ± 0.01
TTTTGAAGGA	1.01 ± 0.027
TTTTGAAGTA	1.0186 ± 0.00093
TTTTGAATGG	1.02 ± 0.04
TTTTGAATTA	1.01 ± 0.032
TTTTGAGGCT	1.01 ± 0.073
TTTTGAGTAG	0.987 ± 0.021
TTTTGATCTT	0.991 ± 0.012
TTTTGATGCT	0.998 ± 0.057
TTTTGATGGG	0.981 ± 0.055
TTTTGATTGA	1.03 ± 0.034

Sequence	switch fluorescence ratio
TTTTGCAGCT	1 ± 0.019
TTTTGCATAT	1.26 ± 0.42
TTTTGCCATT	0.999 ± 0.035
TTTTGCCTAT	1 ± 0.025
TTTTGCGAAG	1.03 ± 0.027
TTTTGCTGCC	1.027 ± 0.002
TTTTGCTGGT	1 ± 0.027
TTTTGGAAAG	0.987 ± 0.013
TTTTGGACTC	1.007 ± 0.006
TTTTGGCCGG	1.05 ± 0.035
TTTTGGCGCG	1 ± 0.061
TTTTGGCTTT	1 ± 0.034
TTTTGGGAGT	1 ± 0.026
TTTTGGGCAT	1.04 ± 0.11
TTTTGGGGAA	1 ± 0.024
TTTTGGGGCC	1 ± 0.032
TTTTGGGGCG	1.04 ± 0.055
TTTTGGGTAA	1.01 ± 0.0051
TTTTGGTGTT	1.02 ± 0.036
TTTTGTAGGG	0.969 ± 0.041
TTTTGTAGTG	0.988 ± 0.042
TTTTGTGAGG	1.04 ± 0.044
TTTTGTGGG	0.966 ± 0.046
